# Test results reported in PMC8578620 (Nature Communications, 2021).
# B1: 2G12 (antibody, V domains shown)
# VH: EVQLVESGGGLVKAGGSLILSCGVSNFRISAHTMNWVRRVPGGGLEWVASISTSSTYRDYADAVKGRFTVSRDDLEDFVYLQMHKMRVEDTAIYYCARKGSDRLSDNDPFDAWGPGTVVTVSP
# VL: VVMTQSPSTLSASVGDTITITCRASQSIETWLAWYQQKPGKAPKLLIYKASTLKTGVPSRFSGSGSGTEFTLTISGLQFDDFATYHCQHYAGYSATFGQGTRVEIK
# Biological target: CAP256.wk34.c80 SOSIP.RnS2 Env trimer containing the native N160 glycan site (HIV-1 clade C, CAP256.wk34.c80 …, stabilised)
binder,measurement,value
B1,binding result,binds
